Test results as given in PMC10684895, “The ELAVL3/MYCN positive feedback loop provides a therapeutic target for neuroendocrine prostate cancer”.

Molecular target: GST-ELAVL3 (UniProt Q14576 1-367)
Assay: EMSA; 5 mM Mg2+; RNA-EMSA: 20 mM Tris-HCl (pH not stated), 100 mM NaCl, 5 mM MgCl2, 2 mM DTT, 37 C 1 h, 6% native gel at 4 C; pull-down: 50 pmol probe on beads, cell lysate, 4 C overnight
Details: protein: recombinant; tags: N-terminal GST (pGEX-4T-1); label: 3'-biotin

Sequence of GST-ELAVL3 (Q14576 whole entry): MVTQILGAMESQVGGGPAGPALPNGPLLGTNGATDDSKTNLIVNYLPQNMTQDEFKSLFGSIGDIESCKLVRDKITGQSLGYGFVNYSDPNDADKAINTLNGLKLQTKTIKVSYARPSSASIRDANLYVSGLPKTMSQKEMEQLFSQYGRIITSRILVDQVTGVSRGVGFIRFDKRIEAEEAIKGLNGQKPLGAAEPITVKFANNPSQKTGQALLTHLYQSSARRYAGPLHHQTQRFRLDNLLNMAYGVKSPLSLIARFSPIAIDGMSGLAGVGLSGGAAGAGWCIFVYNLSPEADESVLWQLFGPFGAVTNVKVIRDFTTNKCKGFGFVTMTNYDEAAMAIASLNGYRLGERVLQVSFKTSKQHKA

Binder | binding result
UCCAUCCUAGACACUACCUCAGUCGACGUA (ssRNA) [RICTOR-3'UTR-F3-MUT] | no binding
CACUCUGCACAUCCUGAUCUCUCUCUCAGA (ssRNA) [MYCN-3'UTR-F1-MUT] | no binding
